Data reported in paper PMC9400494.

Key:
Experiment in all cases: fluorescence polarization
[1] = tested on: nsp12 RdRP (SARS-CoV-2 (Wuhan-1 strain))
[2] = tested on: nsp7 (SARS-CoV-2 (Wuhan-1 strain))
[3] = tested on: nsp8 (SARS-CoV-2 (Wuhan-1 strain))
[4] = tested on: nsp8L7 (nsp8-GSGSGS-nsp7 fusion) (SARS-CoV-2 (Wuhan-1 strain))

With FP primer-template RNA hairpin the Kd [1] was 200 nM, the Kd [2] was 7000 nM and the Kd [3] was 200 nM. The Kd [4] was 200 nM.
